Here are results for four molecules from US20240409645A1 (DUALYX, published 2024).

B1: DC00039 (other)
chain 1: QVQLVESGGGLVQPGGSLRLSCATSGFTFRNNFMSWVRQAPGKGLEWVSTISYGGESTTYAESVKGRFTISRDNAKNTLYLQMNNLKPEDTAVYYCAKATSYDSIRSGSRGQGTQVTVSSDKTHTCPPCPAPEAAGGPSVFLFPPKPKDTLMISRTPEVTCVVVDVSHEDPEVKFNWYVDGVEVHNAKTKPREEQYNSTYRVVSVLTVLHQDWLNGKEYKCKVSNKALGAPIEKTISKAKGQPREPQVYTLPPSRDELTKNQVSLTCLVKGFYPSDIAVEWESNGQPENNYKTTPPVLDSDGSFLLYSKLTVDKSRWQQGNVFSCSVMHEALHNHYTQKSLSLSPGK
chain 2: EVQLVESGGGLVQTGGSLRLSCAASGGTFSRDAMAWFRQVPGKEREFVALISWSGATTNYADSVKGRFAISRDNGKNTVYLQMNRLKPADTAIYYCAADRRPMGSRSYFEPTEYDDWGQGTQVTVSSGGGGSGGGGSGGGGSQVQLVESGGGLVQPGGSLRLSCATSGFTFRNNFMSWVRQAPGKGLEWVSTISYGGESTTYAESVKGRFTISRDNAKNTLYLQMNNLKPEDTAVYYCAKATSYDSIRSGSRGQGTQVTVSSGGGGSGGGGSGGGGSQVQLVESGGGLVQAGGSLTLSCAAPGRTFGTDVVGWFRQAPGKEREFVASISRSGDGIYYDDSVKGRFTISRNNAWNTVNLQMNSLKVEDTAVYYCAAGDGWSTYDYWGQGTQVTVSSGGGGSGGGGSGGGGSDKTHTCPPCPAPEAAGGPSVFLFPPKPKDTLMISRTPEVTCVVVDVSHEDPEVKFNWYVDGVEVHNAKTKPREEQYNSTYRVVSVLTVLHQDWLNGKEYKCKVSNKALGAPIEKTISKAKGQPREPQVYTLPPSRDELTKNQVSLTCLVKGFYPSDIAVEWESNGQPENNYKTTPPVLDSDGSFFLYSRLTVDKSRWQQGNVFSCSVMHEALHNHYTQKSLSLSPGK
B2: DC00041 (other)
chain 1: QVQLVESGGGLVQPGGSLRLSCATSGFTFRNNFMSWVRQAPGKGLEWVSTISYGGESTTYAESVKGRFTISRDNAKNTLYLQMNNLKPEDTAVYYCAKATSYDSIRSGSRGQGTQVTVSSDKTHTCPPCPAPEAAGGPSVFLFPPKPKDTLMISRTPEVTCVVVDVSHEDPEVKFNWYVDGVEVHNAKTKPREEQYNSTYRVVSVLTVLHQDWLNGKEYKCKVSNKALGAPIEKTISKAKGQPREPQVYTLPPSRDELTKNQVSLTCLVKGFYPSDIAVEWESNGQPENNYKTTPPVLDSDGSFLLYSKLTVDKSRWQQGNVFSCSVMHEALHNHYTQKSLSLSPGK
chain 2: QVQLVESGGGLVQPGGSLRLSCATSGFTFRNNFMSWVRQAPGKGLEWVSTISYGGESTTYAESVKGRFTISRDNAKNTLYLQMNNLKPEDTAVYYCAKATSYDSIRSGSRGQGTQVTVSSGGGGSGGGGSGGGGSQVQLVESGGGLVQAGGSLTLSCAAPGRTFGTDVVGWFRQAPGKEREFVASISRSGDGIYYDDSVKGRFTISRNNAWNTVNLQMNSLKVEDTAVYYCAAGDGWSTYDYWGQGTQVTVSSGGGGSGGGGSGGGGSEVQLVESGGGLVQTGGSLRLSCAASGGTFSRDAMAWFRQVPGKEREFVALISWSGATTNYADSVKGRFAISRDNGKNTVYLQMNRLKPADTAIYYCAADRRPMGSRSYFEPTEYDDWGQGTQVTVSSGGGGSGGGGSGGGGSDKTHTCPPCPAPEAAGGPSVFLFPPKPKDTLMISRTPEVTCVVVDVSHEDPEVKFNWYVDGVEVHNAKTKPREEQYNSTYRVVSVLTVLHQDWLNGKEYKCKVSNKALGAPIEKTISKAKGQPREPQVYTLPPSRDELTKNQVSLTCLVKGFYPSDIAVEWESNGQPENNYKTTPPVLDSDGSFFLYSRLTVDKSRWQQGNVFSCSVMHEALHNHYTQKSLSLSPGK
B3: DC00040 (other)
chain 1: QVQLVESGGGLVQPGGSLRLSCATSGFTFRNNFMSWVRQAPGKGLEWVSTISYGGESTTYAESVKGRFTISRDNAKNTLYLQMNNLKPEDTAVYYCAKATSYDSIRSGSRGQGTQVTVSSDKTHTCPPCPAPEAAGGPSVFLFPPKPKDTLMISRTPEVTCVVVDVSHEDPEVKFNWYVDGVEVHNAKTKPREEQYNSTYRVVSVLTVLHQDWLNGKEYKCKVSNKALGAPIEKTISKAKGQPREPQVYTLPPSRDELTKNQVSLTCLVKGFYPSDIAVEWESNGQPENNYKTTPPVLDSDGSFLLYSKLTVDKSRWQQGNVFSCSVMHEALHNHYTQKSLSLSPGK
chain 2: EVQLVESGGGLVQTGGSLRLSCAASGGTFSRDAMAWFRQVPGKEREFVALISWSGATTNYADSVKGRFAISRDNGKNTVYLQMNRLKPADTAIYYCAADRRPMGSRSYFEPTEYDDWGQGTQVTVSSGGGGSGGGGSGGGGSQVQLVESGGGLVQAGGSLTLSCAAPGRTFGTDVVGWFRQAPGKEREFVASISRSGDGIYYDDSVKGRFTISRNNAWNTVNLQMNSLKVEDTAVYYCAAGDGWSTYDYWGQGTQVTVSSGGGGSGGGGSGGGGSDKTHTCPPCPAPEAAGGPSVFLFPPKPKDTLMISRTPEVTCVVVDVSHEDPEVKFNWYVDGVEVHNAKTKPREEQYNSTYRVVSVLTVLHQDWLNGKEYKCKVSNKALGAPIEKTISKAKGQPREPQVYTLPPSRDELTKNQVSLTCLVKGFYPSDIAVEWESNGQPENNYKTTPPVLDSDGSFFLYSRLTVDKSRWQQGNVFSCSVMHEALHNHYTQKSLSLSPGK
B4: DC00042 (other)
chain 1: QVQLVESGGGLVQPGGSLRLSCATSGFTFRNNFMSWVRQAPGKGLEWVSTISYGGESTTYAESVKGRFTISRDNAKNTLYLQMNNLKPEDTAVYYCAKATSYDSIRSGSRGQGTQVTVSSDKTHTCPPCPAPEAAGGPSVFLFPPKPKDTLMISRTPEVTCVVVDVSHEDPEVKFNWYVDGVEVHNAKTKPREEQYNSTYRVVSVLTVLHQDWLNGKEYKCKVSNKALGAPIEKTISKAKGQPREPQVYTLPPSRDELTKNQVSLTCLVKGFYPSDIAVEWESNGQPENNYKTTPPVLDSDGSFLLYSKLTVDKSRWQQGNVFSCSVMHEALHNHYTQKSLSLSPGK
chain 2: QVQLVESGGGLVQAGGSLTLSCAAPGRTFGTDVVGWFRQAPGKEREFVASISRSGDGIYYDDSVKGRFTISRNNAWNTVNLQMNSLKVEDTAVYYCAAGDGWSTYDYWGQGTQVTVSSGGGGSGGGGSGGGGSEVQLVESGGGLVQTGGSLRLSCAASGGTFSRDAMAWFRQVPGKEREFVALISWSGATTNYADSVKGRFAISRDNGKNTVYLQMNRLKPADTAIYYCAADRRPMGSRSYFEPTEYDDWGQGTQVTVSSGGGGSGGGGSGGGGSDKTHTCPPCPAPEAAGGPSVFLFPPKPKDTLMISRTPEVTCVVVDVSHEDPEVKFNWYVDGVEVHNAKTKPREEQYNSTYRVVSVLTVLHQDWLNGKEYKCKVSNKALGAPIEKTISKAKGQPREPQVYTLPPSRDELTKNQVSLTCLVKGFYPSDIAVEWESNGQPENNYKTTPPVLDSDGSFFLYSRLTVDKSRWQQGNVFSCSVMHEALHNHYTQKSLSLSPGK

This assay deals with T1, human IL-2 receptor (IL-2Rα/IL-2Rβ/γc) (human, UniProt P01589 22-272; P14784 27-551; P31785 23-369).
T1 sequence 1: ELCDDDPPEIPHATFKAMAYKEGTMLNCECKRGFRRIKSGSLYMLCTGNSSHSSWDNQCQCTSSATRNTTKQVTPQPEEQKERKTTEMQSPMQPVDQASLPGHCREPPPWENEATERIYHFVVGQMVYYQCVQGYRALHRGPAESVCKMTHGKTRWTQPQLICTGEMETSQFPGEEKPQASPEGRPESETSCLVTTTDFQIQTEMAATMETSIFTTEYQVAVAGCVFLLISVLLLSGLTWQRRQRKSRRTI
T1 sequence 2: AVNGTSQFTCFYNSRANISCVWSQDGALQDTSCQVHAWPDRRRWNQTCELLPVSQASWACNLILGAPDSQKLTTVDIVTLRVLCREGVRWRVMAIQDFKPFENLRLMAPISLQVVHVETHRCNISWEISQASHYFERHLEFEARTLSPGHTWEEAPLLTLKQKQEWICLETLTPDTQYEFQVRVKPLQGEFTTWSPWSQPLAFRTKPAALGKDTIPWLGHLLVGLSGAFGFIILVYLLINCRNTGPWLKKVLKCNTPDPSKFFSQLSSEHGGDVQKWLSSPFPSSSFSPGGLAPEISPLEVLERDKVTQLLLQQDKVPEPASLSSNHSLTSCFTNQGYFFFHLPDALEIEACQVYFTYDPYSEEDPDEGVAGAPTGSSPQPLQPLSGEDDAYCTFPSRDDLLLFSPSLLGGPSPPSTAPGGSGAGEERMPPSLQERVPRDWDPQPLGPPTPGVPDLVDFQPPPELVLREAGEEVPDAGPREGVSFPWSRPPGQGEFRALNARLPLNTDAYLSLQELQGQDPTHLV
T1 sequence 3: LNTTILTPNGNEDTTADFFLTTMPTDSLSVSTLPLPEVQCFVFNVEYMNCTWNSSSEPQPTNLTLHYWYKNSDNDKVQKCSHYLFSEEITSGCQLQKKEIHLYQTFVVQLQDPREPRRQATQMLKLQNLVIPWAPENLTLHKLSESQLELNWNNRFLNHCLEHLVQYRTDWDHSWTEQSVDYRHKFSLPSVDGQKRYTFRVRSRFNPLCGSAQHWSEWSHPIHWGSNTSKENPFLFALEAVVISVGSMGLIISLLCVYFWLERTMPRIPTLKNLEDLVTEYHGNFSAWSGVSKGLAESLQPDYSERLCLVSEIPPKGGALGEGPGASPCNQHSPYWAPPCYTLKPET
As to the kind of experiment: cell-based or functional assay.
In the case of B1, the “EC50 (nM) pSTAT5, NK, human PBMCs” value turned out to be 0.0315 nM; the “EC50 (nM) pSTAT5, Treg, human PBMCs” value turned out to be 0.761 pM; the “Fold Max signal (% pSTAT5+) Treg/NK” value is 11 fold; the “Max signal (% pSTAT5+), NK” value was 4 % pSTAT5+. For the same molecule, the “Max signal (% pSTAT5+), Treg” value amounted to 46 % pSTAT5+ and the “fold EC50 NK/Treg” value amounted to 41 fold.
Turning to B2, the “EC50 (nM) pSTAT5, NK, human PBMCs” value came to 0.15 nM; the “EC50 (nM) pSTAT5, Treg, human PBMCs” value was under 0.1 pM; the “Fold Max signal (% pSTAT5+) Treg/NK” value is 5 fold; the “Max signal (% pSTAT5+), NK” value stood at 17 % pSTAT5+. For the same molecule, the “Max signal (% pSTAT5+), Treg” value came out at 94 % pSTAT5+ and the “fold EC50 NK/Treg” value is over 1500 fold.
With B3, the “EC50 (nM) pSTAT5, NK, human PBMCs” value was 0.701 nM; the “EC50 (nM) pSTAT5, Treg, human PBMCs” value amounted to 0.0158 nM; the “Fold Max signal (% pSTAT5+) Treg/NK” value was found to be 10 fold; the “Max signal (% pSTAT5+), NK” value was found to be 4 % pSTAT5+. Besides, the “Max signal (% pSTAT5+), Treg” value turned out to be 43 % pSTAT5+ and the “fold EC50 NK/Treg” value was 44 fold.
Consider B4, for which the “EC50 (nM) pSTAT5, NK, human PBMCs” value was found to be 0.763 nM; the “EC50 (nM) pSTAT5, Treg, human PBMCs” value was 0.106 pM; the “Fold Max signal (% pSTAT5+) Treg/NK” value is 5 fold; the “Max signal (% pSTAT5+), NK” value turned out to be 21 % pSTAT5+. Moreover, the “Max signal (% pSTAT5+), Treg” value worked out at 94 % pSTAT5+ and the “fold EC50 NK/Treg” value is 7210 fold.
